These results are taken from patent US20040229260.

Data set [1] concerns the target protein encoded by the partial P43 cDNA clone.
Data set [2] concerns the target T1, protein encoded by clone L20 (identical to amino acids 104-420 of NEFA), P80303.
T1 chain: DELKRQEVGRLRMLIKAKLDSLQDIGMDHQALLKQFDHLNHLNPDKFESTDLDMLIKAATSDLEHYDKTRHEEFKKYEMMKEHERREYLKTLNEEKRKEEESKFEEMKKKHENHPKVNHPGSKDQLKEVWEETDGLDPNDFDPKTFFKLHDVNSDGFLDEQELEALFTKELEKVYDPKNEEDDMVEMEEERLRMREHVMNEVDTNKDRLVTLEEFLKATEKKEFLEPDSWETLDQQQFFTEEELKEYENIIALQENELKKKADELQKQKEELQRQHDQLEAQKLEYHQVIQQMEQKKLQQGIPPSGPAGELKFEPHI

In data set [3] the target is protein encoded by clone B11 (cDNA insert homologous to the C-terminal end of CTP-Phosphoenolamine cytidylyltransferase), Q99447.
For data set [4], the target named is T2, polypeptide encoded by clone J2 (partial sequence of putative human N-acetylglucosamine-6-phosphate deacetylase).
T2 chain: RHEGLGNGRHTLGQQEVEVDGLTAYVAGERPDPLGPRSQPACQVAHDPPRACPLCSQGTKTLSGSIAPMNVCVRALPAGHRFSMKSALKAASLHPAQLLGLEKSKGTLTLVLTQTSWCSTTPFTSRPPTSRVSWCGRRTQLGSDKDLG

For data set [5], the target named is protein encoded by clone L12.
For data set [6], the target named is T3, protein encoded by clone B33 (cDNA insert homologous to C-terminus of Nucleobindin), Q02818.
T3 chain: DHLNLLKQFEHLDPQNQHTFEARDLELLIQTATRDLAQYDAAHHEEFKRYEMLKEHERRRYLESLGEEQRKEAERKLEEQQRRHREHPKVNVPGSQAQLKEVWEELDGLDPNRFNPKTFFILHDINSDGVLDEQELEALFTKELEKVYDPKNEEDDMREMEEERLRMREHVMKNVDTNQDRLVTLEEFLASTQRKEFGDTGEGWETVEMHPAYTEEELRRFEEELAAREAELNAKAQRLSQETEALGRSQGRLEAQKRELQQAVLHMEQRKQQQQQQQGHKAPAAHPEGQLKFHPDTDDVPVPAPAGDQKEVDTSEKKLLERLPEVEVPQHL

Data set [7] deals with T4, bacterially produced caspase-8 (in-vitro protease assay of Example 2.4), Q14790.
T4 chain: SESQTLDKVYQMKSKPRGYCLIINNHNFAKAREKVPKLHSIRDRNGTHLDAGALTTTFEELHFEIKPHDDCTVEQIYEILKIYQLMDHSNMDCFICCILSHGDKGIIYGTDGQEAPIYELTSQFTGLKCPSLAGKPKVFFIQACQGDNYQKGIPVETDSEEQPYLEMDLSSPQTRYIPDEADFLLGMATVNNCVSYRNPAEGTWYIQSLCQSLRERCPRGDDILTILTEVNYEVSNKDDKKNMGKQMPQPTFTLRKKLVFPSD

protein encoded by clone B11 (cDNA insert homologous to the C-terminal end of CTP-Phosphoenolamine cytidylyltransferase), Q99447, sequence (Q99447 213-389): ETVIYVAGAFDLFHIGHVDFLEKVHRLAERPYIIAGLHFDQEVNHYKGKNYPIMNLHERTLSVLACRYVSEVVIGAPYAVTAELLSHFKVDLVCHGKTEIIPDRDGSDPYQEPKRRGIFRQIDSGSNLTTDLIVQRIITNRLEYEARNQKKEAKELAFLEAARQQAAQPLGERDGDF

B1: caspase 9 expressed in E. coli as Histidine tagged subunit 2-subunit 1 (S2-S1) fusion protein (protein)
chain: GALESLRGNADLAYILSMEPCGHCLIINNVNFCRESGLRTRTGSNIDCEKLRRRFSSLHFMVEVKGDLTAKKMVLALLELAQQDHGALDCCVVVILSHGCQASHLQFPGAVYGTDGCPVSVEKIVNIFNGTSCPSLGGKPKLFFIQACGGEQKDHGFEVASTSPEDESPGSNPEPDATPFQEGLRTFDQLDAISSLPTPSDIFVSYSTFPGFVSWRDPKSGSWYVETLDDIFEQWAHSEDLQSLLLRVANAVSVKGIYKQMPGCFNFLRKKLFFKTS
Take B1: the “cleavage in the protease assay with bacterial lysate (1 or 4 RU)” value in data set [1] is reported as “it was not cleaved by caspase-3 nor by caspase-9”.

B2: bacterially produced caspase-8 (in-vitro protease assay of Example 2.4) (protein)
chain: SESQTLDKVYQMKSKPRGYCLIINNHNFAKAREKVPKLHSIRDRNGTHLDAGALTTTFEELHFEIKPHDDCTVEQIYEILKIYQLMDHSNMDCFICCILSHGDKGIIYGTDGQEAPIYELTSQFTGLKCPSLAGKPKVFFIQACQGDNYQKGIPVETDSEEQPYLEMDLSSPQTRYIPDEADFLLGMATVNNCVSYRNPAEGTWYIQSLCQSLRERCPRGDDILTILTEVNYEVSNKDDKKNMGKQMPQPTFTLRKKLVFPSD
For B2, the cleavage in vitro result in data set [2] is “Clone L20 is cleaved by caspase 8 both in-vitro and in-vivo”; in data set [4] it was “The polypeptide encoded by Clone J2 is cleaved in-vitro by caspase-8”; in data set [6] it was “Clone B33 was cleaved by caspase-8 both in-vitro and in-vivo”. Also, the “cleavage in the in-vitro protease assay” value in data set [3] was “Clone B11 was cleaved in-vitro by caspase-8 as demonstrated in the assay described in the above-mentioned Example 2.4”. Also, in data set [5], the “cleavage in the in-vitro protease assay (35S labeled protein, SDS-PAGE, autoradiography)” value was “Clone L12 is cleaved in-vitro by caspase-8 as shown by an in-vitro protease assay”.

B3: caspase 3 expressed in E. coli as Histidine tagged subunit 2-subunit 1 (S2-S1) fusion protein (protein)
chain: SGISLDNSYKMDYPEMGLCIIINNKNFHKSTGMTSRSGTDVDAANLRETFRNLKYEVRNKNDLTREEIVELMRDVSKEDHSKRSSFVCVLLSHGEEGIIFGTNGPVDLKKITNFFRGDRCRSLTGKPKLFIIQACRGTELDCGIETDSGVDDDMACHKIPVEADFLYAYSTAPGYYSWRNSKDGSWFIQSLCAMLKQYADKLEFMHILTRVNRKVATEFESFSFDATFHAKKQIPCIVSMLTKELYFYH
On to B3, for which the “cleavage in the protease assay with bacterial lysate (1 or 4 RU)” value in data set [1] is recorded as “it was not cleaved by caspase-3 nor by caspase-9”.

B4: protein encoded by clone L5 (Tip60, Tat interacting protein 60 kDa, lacking amino acids 94 to 145) (protein)
chain: MAEVGEIIEGCRLPVLRRNQDNEDEWPLAEILSVKDISGRKLFYVHYIDFNKRLDEWVTHERLDLKKIQFPKKEAKTPTKNGLPGSRPGSPEREVKRKVEVVSPATPVPSETAPASVFPQNGAARRAVAAQPGRKRKSNCLGTDEDSQDSSDGIPSAPRMTGSLVSDRSHDDIVTRMKNIECIELGRHRLKPWYFSPYPQELTTLPVLYLCEFCLKYGRSLKCLQRHLTKCDLRHPPGNEIYRKGTISFFEIDGRKNKSYSQNLCLLAKCFLDHKTLYYDTDPFLFYVMTEYDCKGFHIVGYFSKEKESTEDYNVACILTLPPYQRRGYGKLLIEFSYELSKVEGKTGTPEKPLSDLGLLSYRSYWSQTILEILMGLKSESGERPQITINEISEITSIKKEDVISTLQYLNLINYYKGQYILTLSEDIVDGHERAMLKRLLRIDSKCLHFTPKDWSKRGKW
Regarding B4, the “cleavage in the in-vitro protease assay” value in data set [7] is recorded as “Clone L5 was cleaved in-vitro by caspase-8 in the in-vitro protease assay described in Example 2.4”.
